PMC3338918 (Angiogenesis, 2012)

T1: hVEGFR3-hFc (human, UniProt P35916 25-775)
T1 construct: human VEGFR3; source: bought: R&D Systems
T1 sequence (looked up): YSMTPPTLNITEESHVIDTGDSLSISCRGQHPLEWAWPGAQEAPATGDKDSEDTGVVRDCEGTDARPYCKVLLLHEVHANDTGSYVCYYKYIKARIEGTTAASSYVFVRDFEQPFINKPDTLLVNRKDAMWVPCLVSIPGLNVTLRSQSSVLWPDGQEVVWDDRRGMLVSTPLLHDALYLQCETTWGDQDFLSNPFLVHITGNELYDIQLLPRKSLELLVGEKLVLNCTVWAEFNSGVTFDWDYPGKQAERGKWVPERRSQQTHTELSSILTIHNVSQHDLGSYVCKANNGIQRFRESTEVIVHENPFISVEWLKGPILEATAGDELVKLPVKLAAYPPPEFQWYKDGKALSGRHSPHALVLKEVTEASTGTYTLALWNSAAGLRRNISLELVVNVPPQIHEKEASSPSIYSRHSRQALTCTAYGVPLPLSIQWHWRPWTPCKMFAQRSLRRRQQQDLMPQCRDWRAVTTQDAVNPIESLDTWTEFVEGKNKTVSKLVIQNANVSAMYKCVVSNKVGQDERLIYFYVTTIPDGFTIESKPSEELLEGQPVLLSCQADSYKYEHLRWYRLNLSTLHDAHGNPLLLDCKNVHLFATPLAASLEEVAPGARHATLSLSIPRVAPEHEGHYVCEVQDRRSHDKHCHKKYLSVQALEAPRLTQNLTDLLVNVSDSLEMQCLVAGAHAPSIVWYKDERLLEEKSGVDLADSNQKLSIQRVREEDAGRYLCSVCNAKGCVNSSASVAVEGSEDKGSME


Biological target: T1, hVEGFR3-hFc
Assay: SPR; Biacore 3000, CM5 chip, 25°C, HBS-T (10 mM Hepes, 150 mM NaCl, 3.4 mM EDTA, 0.05% polysorbate 20, pH 7.4); VEGF Trap or receptor-Fc captured at low density on amine-coupled Protein A, ligands injected (1.0–0.062 nM VEGF-A, 2.5–0.156 nM VEGF-B(10-108), 5.0–0.078 nM PlGF); kd of VEGF-A ligands by the 'fixed kd' procedure on a Biacore 2000 (~2–3 h); KD = kd/ka
Conditions: both partners purified

Binder	binding result
human VEGF-C (ligand, UniProt P49767 112-227, looked up, human VEGF-C; source: bought: R&D Systems) AHYNTEILKSIDNEWRKTQCMPREVCIDVGKEFGVATNTFFKPPCVSVYRCGGCCNSEGLQCMNTSTSYLSKTLFEITVPLSQGPKPVTISFANHTSCRCMSKLDVYRQVHSIIRR	binds
human VEGF-D (ligand, UniProt O43915 89-205, looked up, human VEGF-D; source: bought: R&D Systems) FAATFYDIETLKVIDEEWQRTQCSPRETCVEVASELGKSTNTFFKPPCVNVFRCGGCCNEESLICMNTSTSYISKQLFEISVPLTSVPELVPVKVANHTGCKCLPTAPRHPYSIIRR	binds
